The record followed here is patent publication US8957190B2, “Use of heat-resistant biotin-binding protein, and solid support having the protein attached thereto” (Japan Tobacco Inc., priority 2006, dated 2015).

Data set [1] can be described thus: Fluorescent biotin-binding activity of tamavidin 1 after heat treatment at 70° C. The conditions noted are these: supernatant treated at 70° C. for 10 minutes, incubation at room temperature. The protocol:
Fluorescent biotin-binding activity was measured for tamavidin 1 in the above centrifuged supernatant after heat treatment at 70° C. The same procedure as used for tamavidin 2 was repeated for this purpose. Incubation with fluorescent biotin was performed at room temperature.

Data set [2] can be described thus: Heat resistance: protein stability (heating, SDS-PAGE band quantification). In kind it is physicochemical. The conditions noted are these: for tetramer dissociation upon addition of biotin: biotin added, after treatment at 95° C.; for heat resistance higher than that of streptavidin: difference of 50% band-intensity temperatures; for temperature which caused a 50% reduction in protein band intensity: heated 20 minutes, soluble protein, SDS-PAGE, no biotin; for heat resistance higher than in streptavidin (summary statement): summary in disclosure. The protocol: (§1) 0.2 μg/μL TM2 and 0.2 μg/μL streptavidin were heated in 10 μL (2 μg) volumes at room temperature, 50° C., 60° C., 70° C., 80° C., 90° C. or 99° C. for 20 minutes, followed by centrifugation at 15000 rpm for 10 minutes. Each supernatant (soluble protein) was suspended in an equal volume of 2×SDS sample buffer (100 mM Tris-HCl pH 6.8, 12% 2-mercaptoethanol, 2% SDS, 20% glycerol), heated at 95° C. for 10 minutes and then analyzed by SDS-PAGE. Protein bands were detected by CBB staining. Using a Las-3000 system (FUJIFILM), a calibration curve was prepared based on quantification markers (LMW ELECTROPHORESIS CALIBRATION KIT; Pharmacia Biotech) and used to quantify the protein bands. The temperature which caused a 50% reduction in protein band intensity was 71° C. for streptavidin, whereas it was 87° C. for tamavidin 2.
as §1, with “Purified tamavidin 1 at a concentration of 0.2” for “0.2”, “was” for “TM2 and 0.2 μg/μL streptavidin were”, “As a result, the” for “The”, “76°” for “71° C. for streptavidin, whereas it was 87°”, “1.” for “2.”

Data set [3] in a line: Heat resistance: fluorescent biotin-binding activity of heated biotin-binding proteins. The protocol:
Based on the property of fluorescent biotin to lose its fluorescence intensity when bound to a biotin-binding site in a biotin-binding protein, tamavidin 2 was compared with streptavidin and avidin for biotin-binding capacity under high temperature conditions.
About 0.25 μg/μL TM2 and streptavidin were heated at room temperature, 50° C., 60° C., 70° C., 80° C. or 90° C. for 20 minutes. Solutions were prepared to contain the heat-treated TM2 or streptavidin at stepwise concentrations from 0 μL to 27 μL in 150 μL assay buffer (50 mM NaH2PO4, 100 mM NaCl, 1 mM EDTA (pH 7.5)). These solutions were each mixed with 50 μL (250 pmol) of a 5 pmol/μL fluorescent biotin solution (biotin-4-fluorescein; Molecular Probe) and allowed to stand at room temperature for 20 minutes, followed by measuring the fluorescence intensity with a Las-3000 system (FUJIFILM).
Heat resistance test on the biotin-binding proteins was accomplished as follows. About 0.25 μg/μL biotin-binding protein was heated at room temperature, 50° C., 60° C., 70° C., 80° C. or 90° C. for 20 minutes. Solutions were prepared to contain the heated biotin-binding protein at stepwise concentrations from 0 μL to 12 μL in 150 μL assay buffer. These solutions were each mixed with 50 μL (100 pmol) of a 2 pmol/μL fluorescent biotin solution and allowed to stand at room temperature for 20 minutes, followed by measuring the fluorescence intensity at Ex=460 nm and Em=525 nm with an Infinite M200 (TECAN).

The test system of another data set is salmon sperm DNA. Description: Test for non-specific binding to DNA (slot blot, antibody detection). The conditions noted are these: 25 μg/mL protein, salmon sperm DNA 10 μg to 0.3 μg on membrane. The method, then:
TM2 was analyzed for its non-specific binding to DNA. Serial dilutions of salmon sperm DNA (10 μg to 0.3 μg) in 2×SSC buffer were alkali-denatured and adsorbed onto a Hybond N+ membrane (Amersham Biosciences) using Bio-Dot SF (BIO-RAD). The membrane was blocked with 5×Denhardt's solution (0.1% BSA, 0.1% Ficoll, 0, 1% polyvinylpyrrolidone) and then immersed in a 25 μg/mL TM2, streptavidin or avidin solution at room temperature for 90 minutes. The membrane was then washed three times with TTBS buffer (TBS buffer containing 0.05% Tween 20) at room temperature for 5 minutes. The membrane was blocked with TBS buffer containing 0.5% skimmed milk and 0.01% Tween 20 for 1 hour. The primary antibodies used were rabbit anti-TM2 antibody (purified as described above) for TM2, rabbit anti-streptavidin antibody (SIGMA) for streptavidin, and rabbit anti-avidin antibody (Abcam) for avidin, which were diluted to give the same antibody titer before use. Antigen-antibody reaction with each primary antibody was performed overnight at room temperature. […] The membrane was washed three times with TTBS buffer at room temperature for 5 minutes, and then developed with an Alkaline Phosphatase substrate kit II, vector Black (Funakoshi Co., Ltd., Japan), followed by quantification with a Las-3000 system (FUJIFILM).

Data set [4] can be described thus: Activity measurement by means of fluorescent biotin (method of Kada et al.). Format: binding. The conditions noted are these: room temperature. The protocol: By means of fluorescent biotin, tamavidin 2 was measured for its biotin-binding activity according to the method of Kada et al. (Biochim. Biophys. Acta., 1427: 44-48, (1999)). Solutions were prepared to contain the purified TM2 at stepwise concentrations from 0 pmol to 486 pmol in 200 μl assay buffer (50 mM NaH2PO4, 100 mM NaCl, 1 mM EDTA (pH 7.5)). These solutions were each mixed with 50 μL (1 nmol) of a 20 pmol/μL fluorescent biotin solution (biotin-4-fluorescein; Molecular Probe) and allowed to stand at room temperature for 10 minutes, followed by measuring the fluorescence intensity with a Las-3000 system (FUJIFILM). As a result, 0.274 nmol of TM2 was bound to nmol of fluorescent biotin. Namely, 3.6 mol of fluorescent biotin was bound to 1 mol of tamavidin. […] In the case of streptavidin, 3.4 mol of fluorescent biotin was bound per mol of streptavidin.

A short description of data set [5]: Kinetic analysis of tamavidin 2-biotin interaction using a Biacore 3000 biosensor (surface plasmon resonance). The conditions noted are these: Biacore 3000, 25° C. In kind it is binding. The protocol:
Kinetic Analysis of Tamavidin 2 (TM2)-Biotin Interaction Using a Biacore Biosensor
Highly-purified BSA (2 mg, Sigma) and NHS-biotin (1 mg, Pierce) were dissolved in 1 ml of 50 mM sodium borate pH 8.0 and incubated at 4° C. for 2 hours. The NHS-biotin (EZ-Link NHS-LC-LC-Biotin) had been dissolved in a small volume of DMSO before addition. This solution was introduced into a dialysis tube (MWCO 6-8,000) and dialyzed overnight at 4° C. against 50 mM sodium carbonate pH 6.7. The biotin-BSA conjugate thus prepared (MW 67 kDa, 30 μM) was used as a ligand (a substance immobilized on a sensor chip) for a Biacore® biosensor. On the other hand, recombinant tamavidin 2 was prepared as an analyte (a substance flowing through channels) and analyzed for intermolecular interactions using a Biacore® 3000 (a biosensor designed on the principle of surface plasmon resonance, Biacore Inc.). Biotin-BSA and BSA alone (serving as a negative control) were each immobilized on CM5 sensor chips by amine coupling techniques. Their immobilized amount was adjusted to around 200 RU. BSA-immobilized chips were placed in flow cells 1 and 3, while biotin-BSA-immobilized chips were placed in flow cells 2 and 4. Tamavidin 2 was loaded into flow cells 1 and 2, while streptavidin was loaded into flow cells 3 and 4, each being loaded at a flow rate of 20 μl/min for 2 minutes in running buffer [10 mM HEPES pH 7.4, 150 mM NaCl, 3 mM EDTA, 0.005% Surfactant 20 (Biacore Inc.)]. The samples were then monitored for their dissociation over 60 minutes. […] The dissociation constant (Kd) was determined from kd/ka.
It should be noted that when the regeneration step was skipped, Rmax (the maximum binding amount of an analyte) was reduced ever time the measurement at each concentration was made. For this reason, Rmax was calculated by local fitting for each concentration during analysis. […]

Setting [6] is: 1:1 binding model, biotin-BSA ligand.

As usually defined, the Kd is a measure of binding affinity in units of concentration.

B1: Tamavidin 1: biotin-binding protein (SEQ ID NO: 2) purified from the edible mushroom Pleurotus cornucopiae var. citrinopileatus; recombinant from E. coli (protein, listed as Pleurotus cornucopiae)
chain: MKDVQSLLTGTWYNELGSTMNLTANKDGSLTGTYHSNVGEVPPTYHLSGRYNLQPPSGQGVTLGWAVSFENTSANVHSVSTWSGQYFSEPAEVILTQWLLSRSSEREDLWQSTHVGHDEFSKTKPTKEKIAQAQLLRRGLKFE
As for B1, the “binding to fluorescent biotin after heat treatment” value in data set [1] was “found to bind to fluorescent biotin”. Besides, in data set [2], the “tetramer dissociation upon addition of biotin” value is listed as “tetramer dissociation was not observed”, the “heat resistance higher than that of streptavidin” value stood at 5 °C, the “temperature which caused a 50% reduction in protein band intensity” value is 76 °C and the “heat resistance higher than in streptavidin (summary statement)” value came to 5 °C.

B2: Tamavidin 2: biotin-binding protein (SEQ ID NO: 4) from Pleurotus cornucopiae var. citrinopileatus, recombinant from E. coli, tetramer (protein, listed as Pleurotus cornucopiae)
chain: MSDVQSSLTGTWYNELNSKMELTANKDGTLTGKYLSKVGDVYVPYPLSGRYNLQPPAGQGVALGWAVSWENSKIHSATTWSGQFFSESSPVILTQWLLSSSTARGDVWESTLVGNDSFTKTAPTEQQIAHAQLHCRAPRLK
modifications: tetramer
Consider B2, for which the “temperature which caused a 50% reduction in fluorescence intensity decrement compared to the unheated sample” value in data set [3] (free protein, heated 20 minutes) was determined as 85 °C. Also, in data set [3] (heated at 70° C. or below, 20 minutes), the “change in binding to fluorescent biotin compared to the room temperature value” is reported as “no change”. Moreover, the “retained fluorescent biotin-binding activity” value in data set [3] (heated at 80° C., 20 minutes) is listed as 82%. Further, the “non-specific binding to DNA (staining intensity versus DNA concentration)” value in the data set on salmon sperm DNA is on record as “not strongly affected by DNA concentration”. Moreover, the “amount of TM2 bound to nmol of fluorescent biotin” value in data set [4] (1 nmol fluorescent biotin added) worked out at 0.274 nmol. Further, the “fluorescent biotin bound per mol of protein” value in data set [4] (10 minutes) was found to be 3.6 mol. Also, in data set [5] (setting [6]), the “Association rate constant ks” value was found to be 919000 M⁻¹ s⁻¹ and the “Dissociation rate constant kd” value was found to be 6.83e-06 s⁻¹. Moreover, the Kd in data set [5] (determined from kd/ka, read-out: Dissociation constant Kd) stood at 7.43 pM. Besides, in data set [2], the “tetramer dissociation upon addition of biotin” value is given as “tetramer dissociation was not observed”, the “heat resistance higher than that of streptavidin” value is at least 15 °C, the “temperature which caused a 50% reduction in protein band intensity” value amounted to 87 °C and the “heat resistance higher than in streptavidin (summary statement)” value was at least 10 °C.
